Experiments:
[1] = molecular target: T1, recombinant E. coli DNA gyrase (E. coli, UniProt P0AES4 2-875; P0AES6 2-804); assay: cell-based or functional assay
[2] = molecular target: T1, recombinant E. coli DNA gyrase; assay: SPR (BIAcore 3000), MfpA amine-coupled to CM5 chip, E. coli DNA gyrase as analyte, 1:1 Langmuir fit

T1 sequence (P0AES4 2-875 limits assumed, one chain of several): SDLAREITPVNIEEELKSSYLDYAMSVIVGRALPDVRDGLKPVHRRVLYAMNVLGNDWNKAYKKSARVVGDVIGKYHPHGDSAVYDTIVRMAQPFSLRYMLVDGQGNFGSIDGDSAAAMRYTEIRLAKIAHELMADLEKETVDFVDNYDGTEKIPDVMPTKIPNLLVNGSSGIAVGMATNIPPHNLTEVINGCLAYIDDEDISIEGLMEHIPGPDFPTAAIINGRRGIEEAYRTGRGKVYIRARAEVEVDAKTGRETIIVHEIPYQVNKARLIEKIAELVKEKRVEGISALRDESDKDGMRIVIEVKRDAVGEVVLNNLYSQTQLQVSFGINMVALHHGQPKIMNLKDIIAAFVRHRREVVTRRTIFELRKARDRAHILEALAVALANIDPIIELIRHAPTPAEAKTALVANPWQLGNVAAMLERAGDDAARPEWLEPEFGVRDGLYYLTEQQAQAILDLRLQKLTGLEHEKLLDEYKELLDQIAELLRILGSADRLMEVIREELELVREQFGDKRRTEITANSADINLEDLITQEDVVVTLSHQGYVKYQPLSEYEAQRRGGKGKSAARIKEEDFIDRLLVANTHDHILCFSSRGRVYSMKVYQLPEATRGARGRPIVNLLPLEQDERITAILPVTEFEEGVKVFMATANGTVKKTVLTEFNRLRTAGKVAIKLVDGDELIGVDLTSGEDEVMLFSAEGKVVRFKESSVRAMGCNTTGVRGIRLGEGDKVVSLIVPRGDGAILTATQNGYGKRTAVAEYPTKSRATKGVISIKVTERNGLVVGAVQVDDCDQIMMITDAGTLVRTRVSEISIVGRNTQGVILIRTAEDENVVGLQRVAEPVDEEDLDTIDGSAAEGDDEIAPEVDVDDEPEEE

B1: Mycobacterium tuberculosis MfpA pentapeptide repeat protein (Rv3361c gene product) (other)
chain: QQWVDCEFTGRDFRDEDLSRLHTERAMFSECDFSGVNLAESQHRGSAFRNCTFERTTLWHSTFAQCSMLGSVFVACRLRPLTLDDVDFTLAVLGGNDLRGLNLTGCRLRETSLVDTDLRKCVLRGADLSGARTTGARLDDADLRGATVDPVLWRTASLVGARVDVDQAVAFAAAHGLCLA
notes: also called MtMfpA
inhibition of ATP-dependent DNA supercoiling by E. coli DNA gyrase, apparent IC50 [1]: ~1200 nM | inhibition of ATP-independent relaxation by E. coli DNA gyrase, apparent IC50 [1]: ~1200 nM | Kd [2]: 460 nM | koff [2]: ~0.0001 s⁻¹
